In patent US20210388110A1 (published 2021) one finds Kd data, which are given here for six molecules.

This assay concerns the target T1, soluble human CD3ε chain (human, UniProt P07766 23-126, limits assumed).
T1 construct: the text says soluble human CD3ε chain; also called human CD3 epsilon chain
Briefly: SPR (Biacore). (In general: In SPR one partner is held on a chip, and binding of the other changes the refractive index at the surface.)

T1 sequence (P07766 23-126 limits assumed): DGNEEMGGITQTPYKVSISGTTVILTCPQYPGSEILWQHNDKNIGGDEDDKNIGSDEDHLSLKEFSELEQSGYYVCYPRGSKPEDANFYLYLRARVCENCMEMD

B1: TR01H055-E22Hh/none-Hi-Kn010G3/L0000-k0 (antibody, human IgG1, kappa, L234A L235A, N297A)
heavy: QVQLVESGGGLVQPGRSLRLSCAASGFTFSNAWMHWVRQAPGKGLEWVAQIKDKSNNYATYYAESVKGRFTISRDDSKNSLYLQMNSLKTEDTAVYYCRYVHYSASYGVDIWGQGTTVTVSSASTKGPSVFPLAPSSKSTSGGTAALGCLVKDYFPEPVTVSWNSGALTSGVHTFPAVLQSSGLYSLSSVVTVPSSSLGTQTYICNVNHKPSNTKVDKKVEPKSCDKTHTCPPCPAPEAAGGPSVFLFPPKPKDTLMISRTPEVTCVVVDVSHEDPEVKFNWYVDGVEVHNAKTKPREEQYASTYRVVSVLTVLHQDWLNGKEYKCKVSNKALPAPIEKTISKAKGQPREPQVYTLPPSRCELTKNQVSLSCAVKGFYPSDIAVEWESNGQPENNYKTTPPVLDSDGSFFLVSKLTVDKSRWQQGNVFSCSVMHEALHNHYTQKSLSLSPDYKDDDDK
chain: EPKSSDKTHTCPPCPAPELLGGPSVFLFPPKPKDTLMISRTPEVTCVVVDVSHEDPEVKFNWYVDGVEVHNAKTKPREEQYNSTYRVVSVLTVLHQDWLNGKEYKCKVSNKALPAPIEKTISKAKGQPREPQVCTLPPSRDELTKNQVSLWCLVKGFYPSDIAVEWESNGQPENNYKTTPPVLDSDGSFFLYSKLTVDKSRWQQGNVFSCSVMHEALHNRYTQKSLSLSP
light: DIVMTQSPLSLPVTPGEPASISCRSSQSLVHSNRNTYLHWYQQKPGQAPRLLIYKVSNRFSGVPDRFSGSGSGTDFTLKISRVEAEDVGVYYCGQGTQVPYTFGQGTKLEIKRTVAAPSVFIFPPSDEQLKSGTASVVCLLNNFYPREAKVQWKVDNALQSGNSQESVTEQDSKDSTYSLSSTLTLSKADYEKHKVYACEVTHQGLSSPVTKSFNRGEC
notes: single-arm
What is called Kd is the equilibrium constant for the complex coming apart. As to B1, the Kd was 38.8 nM.

B2: TR01H061-E22Hh/none-Hi-Kn010G3/L0226-k0 (antibody, human IgG1, kappa, L234A L235A, N297A)
heavy: QVQLVESGGGLVQPGRSLRLSCAASGFTFSNAWMHWVRQAPGKGLEWVAQIKDKSQNYATYYAESVKGRFTISRADSKNSIYLQMNSLKTEDTAVYYCRYVHYAASYGVDIWGQGTTVTVSSASTKGPSVFPLAPSSKSTSGGTAALGCLVKDYFPEPVTVSWNSGALTSGVHTFPAVLQSSGLYSLSSVVTVPSSSLGTQTYICNVNHKPSNTKVDKKVEPKSCDKTHTCPPCPAPEAAGGPSVFLFPPKPKDTLMISRTPEVTCVVVDVSHEDPEVKFNWYVDGVEVHNAKTKPREEQYASTYRVVSVLTVLHQDWLNGKEYKCKVSNKALPAPIEKTISKAKGQPREPQVYTLPPSRCELTKNQVSLSCAVKGFYPSDIAVEWESNGQPENNYKTTPPVLDSDGSFFLVSKLTVDKSRWQQGNVFSCSVMHEALHNHYTQKSLSLSPDYKDDDDK
chain: EPKSSDKTHTCPPCPAPELLGGPSVFLFPPKPKDTLMISRTPEVTCVVVDVSHEDPEVKFNWYVDGVEVHNAKTKPREEQYNSTYRVVSVLTVLHQDWLNGKEYKCKVSNKALPAPIEKTISKAKGQPREPQVCTLPPSRDELTKNQVSLWCLVKGFYPSDIAVEWESNGQPENNYKTTPPVLDSDGSFFLYSKLTVDKSRWQQGNVFSCSVMHEALHNRYTQKSLSLSP
light: DIVMTQSPLSLPVTPGEPASISCRSSQSPVHSNRNTYIHWYQQKPGQAPRLLIYKVSNRFSGVPDRFSGSGSGTDFTLKISRVEAEDVGVYYCIQGTQVPYTFGQGTKLEIKRTVAAPSVFIFPPSDEQLKSGTASVVCLLNNFYPREAKVQWKVDNALQSGNSQESVTEQDSKDSTYSLSSTLTLSKADYEKHKVYACEVTHQGLSSPVTKSFNRGEC
notes: single-arm
B2: the Kd was found to be 47.1 nM.

B3: TR01H061-E22Hh/none-Hi-Kn010G3/L0000-k0 (antibody, human IgG1, kappa, L234A L235A, N297A)
heavy: QVQLVESGGGLVQPGRSLRLSCAASGFTFSNAWMHWVRQAPGKGLEWVAQIKDKSQNYATYYAESVKGRFTISRADSKNSIYLQMNSLKTEDTAVYYCRYVHYAASYGVDIWGQGTTVTVSSASTKGPSVFPLAPSSKSTSGGTAALGCLVKDYFPEPVTVSWNSGALTSGVHTFPAVLQSSGLYSLSSVVTVPSSSLGTQTYICNVNHKPSNTKVDKKVEPKSCDKTHTCPPCPAPEAAGGPSVFLFPPKPKDTLMISRTPEVTCVVVDVSHEDPEVKFNWYVDGVEVHNAKTKPREEQYASTYRVVSVLTVLHQDWLNGKEYKCKVSNKALPAPIEKTISKAKGQPREPQVYTLPPSRCELTKNQVSLSCAVKGFYPSDIAVEWESNGQPENNYKTTPPVLDSDGSFFLVSKLTVDKSRWQQGNVFSCSVMHEALHNHYTQKSLSLSPDYKDDDDK
chain: EPKSSDKTHTCPPCPAPELLGGPSVFLFPPKPKDTLMISRTPEVTCVVVDVSHEDPEVKFNWYVDGVEVHNAKTKPREEQYNSTYRVVSVLTVLHQDWLNGKEYKCKVSNKALPAPIEKTISKAKGQPREPQVCTLPPSRDELTKNQVSLWCLVKGFYPSDIAVEWESNGQPENNYKTTPPVLDSDGSFFLYSKLTVDKSRWQQGNVFSCSVMHEALHNRYTQKSLSLSP
light: DIVMTQSPLSLPVTPGEPASISCRSSQSLVHSNRNTYLHWYQQKPGQAPRLLIYKVSNRFSGVPDRFSGSGSGTDFTLKISRVEAEDVGVYYCGQGTQVPYTFGQGTKLEIKRTVAAPSVFIFPPSDEQLKSGTASVVCLLNNFYPREAKVQWKVDNALQSGNSQESVTEQDSKDSTYSLSSTLTLSKADYEKHKVYACEVTHQGLSSPVTKSFNRGEC
notes: single-arm
Regarding B3, the Kd came out at 17.1 nM. This Kd lies about 2.8-fold lower than the previous one.

B4: TR01H061-E22Hh/none-Hi-Kn010G3/L0200-k0 (antibody, human IgG1, kappa, L234A L235A, N297A)
heavy: QVQLVESGGGLVQPGRSLRLSCAASGFTFSNAWMHWVRQAPGKGLEWVAQIKDKSQNYATYYAESVKGRFTISRADSKNSIYLQMNSLKTEDTAVYYCRYVHYAASYGVDIWGQGTTVTVSSASTKGPSVFPLAPSSKSTSGGTAALGCLVKDYFPEPVTVSWNSGALTSGVHTFPAVLQSSGLYSLSSVVTVPSSSLGTQTYICNVNHKPSNTKVDKKVEPKSCDKTHTCPPCPAPEAAGGPSVFLFPPKPKDTLMISRTPEVTCVVVDVSHEDPEVKFNWYVDGVEVHNAKTKPREEQYASTYRVVSVLTVLHQDWLNGKEYKCKVSNKALPAPIEKTISKAKGQPREPQVYTLPPSRCELTKNQVSLSCAVKGFYPSDIAVEWESNGQPENNYKTTPPVLDSDGSFFLVSKLTVDKSRWQQGNVFSCSVMHEALHNHYTQKSLSLSPDYKDDDDK
chain: EPKSSDKTHTCPPCPAPELLGGPSVFLFPPKPKDTLMISRTPEVTCVVVDVSHEDPEVKFNWYVDGVEVHNAKTKPREEQYNSTYRVVSVLTVLHQDWLNGKEYKCKVSNKALPAPIEKTISKAKGQPREPQVCTLPPSRDELTKNQVSLWCLVKGFYPSDIAVEWESNGQPENNYKTTPPVLDSDGSFFLYSKLTVDKSRWQQGNVFSCSVMHEALHNRYTQKSLSLSP
light: DIVMTQSPLSLPVTPGEPASISCRPSQSPVHSNRNTYLHWYQQKPGQAPRLLIYKVSNRFSGVPDRFSGSGSGTDFTLKISRVEAEDVGVYYCGQGTQVPYTFGQGTKLEIKRTVAAPSVFIFPPSDEQLKSGTASVVCLLNNFYPREAKVQWKVDNALQSGNSQESVTEQDSKDSTYSLSSTLTLSKADYEKHKVYACEVTHQGLSSPVTKSFNRGEC
notes: single-arm
Regarding B4, the affinity, expressed as Kd, was 12.7 nM.

B5: TR01H061-E22Hh/none-Hi-Kn010G3/L0215-k0 (antibody, human IgG1, kappa, L234A L235A, N297A)
heavy: QVQLVESGGGLVQPGRSLRLSCAASGFTFSNAWMHWVRQAPGKGLEWVAQIKDKSQNYATYYAESVKGRFTISRADSKNSIYLQMNSLKTEDTAVYYCRYVHYAASYGVDIWGQGTTVTVSSASTKGPSVFPLAPSSKSTSGGTAALGCLVKDYFPEPVTVSWNSGALTSGVHTFPAVLQSSGLYSLSSVVTVPSSSLGTQTYICNVNHKPSNTKVDKKVEPKSCDKTHTCPPCPAPEAAGGPSVFLFPPKPKDTLMISRTPEVTCVVVDVSHEDPEVKFNWYVDGVEVHNAKTKPREEQYASTYRVVSVLTVLHQDWLNGKEYKCKVSNKALPAPIEKTISKAKGQPREPQVYTLPPSRCELTKNQVSLSCAVKGFYPSDIAVEWESNGQPENNYKTTPPVLDSDGSFFLVSKLTVDKSRWQQGNVFSCSVMHEALHNHYTQKSLSLSPDYKDDDDK
chain: EPKSSDKTHTCPPCPAPELLGGPSVFLFPPKPKDTLMISRTPEVTCVVVDVSHEDPEVKFNWYVDGVEVHNAKTKPREEQYNSTYRVVSVLTVLHQDWLNGKEYKCKVSNKALPAPIEKTISKAKGQPREPQVCTLPPSRDELTKNQVSLWCLVKGFYPSDIAVEWESNGQPENNYKTTPPVLDSDGSFFLYSKLTVDKSRWQQGNVFSCSVMHEALHNRYTQKSLSLSP
light: DIVMTQSPLSLPVTPGEPASISCRSSQPPVHSNRNTYIHWYQQKPGQAPRLLIYKVSNRFSGVPDRFSGSGSGTDFTLKISRVEAEDVGVYYCGQGTQVPYTFGQGTKLEIKRTVAAPSVFIFPPSDEQLKSGTASVVCLLNNFYPREAKVQWKVDNALQSGNSQESVTEQDSKDSTYSLSSTLTLSKADYEKHKVYACEVTHQGLSSPVTKSFNRGEC
notes: single-arm
As for B5, binding was put at a Kd of 15.4 nM.

B6: TR01H061-E22Hh/none-Hi-Kn010G3/L0222-k0 (antibody, human IgG1, kappa, L234A L235A, N297A)
heavy: QVQLVESGGGLVQPGRSLRLSCAASGFTFSNAWMHWVRQAPGKGLEWVAQIKDKSQNYATYYAESVKGRFTISRADSKNSIYLQMNSLKTEDTAVYYCRYVHYAASYGVDIWGQGTTVTVSSASTKGPSVFPLAPSSKSTSGGTAALGCLVKDYFPEPVTVSWNSGALTSGVHTFPAVLQSSGLYSLSSVVTVPSSSLGTQTYICNVNHKPSNTKVDKKVEPKSCDKTHTCPPCPAPEAAGGPSVFLFPPKPKDTLMISRTPEVTCVVVDVSHEDPEVKFNWYVDGVEVHNAKTKPREEQYASTYRVVSVLTVLHQDWLNGKEYKCKVSNKALPAPIEKTISKAKGQPREPQVYTLPPSRCELTKNQVSLSCAVKGFYPSDIAVEWESNGQPENNYKTTPPVLDSDGSFFLVSKLTVDKSRWQQGNVFSCSVMHEALHNHYTQKSLSLSPDYKDDDDK
chain: EPKSSDKTHTCPPCPAPELLGGPSVFLFPPKPKDTLMISRTPEVTCVVVDVSHEDPEVKFNWYVDGVEVHNAKTKPREEQYNSTYRVVSVLTVLHQDWLNGKEYKCKVSNKALPAPIEKTISKAKGQPREPQVCTLPPSRDELTKNQVSLWCLVKGFYPSDIAVEWESNGQPENNYKTTPPVLDSDGSFFLYSKLTVDKSRWQQGNVFSCSVMHEALHNRYTQKSLSLSP
light: DIVMTQSPLSLPVTPGEPASISCRSSQSPVHSNRNTYIQWYQQKPGQAPRLLIYKVSNRFSGVPDRFSGSGSGTDFTLKISRVEAEDVGVYYCYQGTQVPYTFGQGTKLEIKRTVAAPSVFIFPPSDEQLKSGTASVVCLLNNFYPREAKVQWKVDNALQSGNSQESVTEQDSKDSTYSLSSTLTLSKADYEKHKVYACEVTHQGLSSPVTKSFNRGEC
notes: single-arm
As for B6, the dissociation constant Kd amounted to 18.8 nM.
